What was measured:
G-CSF = assay: Examples 21-22 non-human primate in vivo study, serum G-CSF ELISA; set-up: species or system cynomolgus monkey; conditions: for Average Serum Conentration: G-CSF
Protocol: Formulations, listed in Table 31, were characterized by particle size, zeta potential, and encapsulation.
LNP formulations, shown in Table 31 (above), were administered to non-human primates (NHP) (cynomolgus monkey) (n=2) as a bolus intravenous injection (IV) over approximately 30 seconds using a hypodermic needle, which may be attached to a syringe/abbocath or butterfly if needed. The NHP were administered a single modified mRNA IV dose of 0.05 mg/kg of EPO or G-CSF or 0.005 mg/kg of EPO in a dose volume of 0.5 mL/kg. The NHPs were bled 5-6 days before dosing with the modified mRNA LNP formulations to determine protein expression in the serum and a baseline complete blood count. After administration with the modified mRNA formulation the NHP were bled at 8, 24, 48 and 72 hours to determined protein expression. At 24 and 72 hours after administration the complete blood count of the NHP was also determined. Protein expression of G-CSF and EPO was determined by ELISA. Urine from the NHPs was collected over the course of the entire experiment and analyzed to evaluate clinical safety. Samples were collected from the NHPs after they were administered with G-CSF or EPO modified mRNA formulations to determine protein expression using ELISA. Clinical chemistry, hematology, urinalysis and cytokines of the non-human primates were also analyzed.
(§1) LNP formulations, shown in Table 31 (above), were administered to non-human primates (NHP) (cynomolgus monkey) (n=2) as intravenous injection (IV). The NHP were administered a single modified mRNA IV dose of 0.5 mg/kg, 0.05 mg/kg or 0.005 mg/kg of G-CSF or EPO in a dose volume of 0.5 mL/kg. The NHPs were bled before dosing with the modified mRNA LNP formulations to determine protein expression in the serum and a baseline complete blood count. After administration with the G-CSF modified mRNA formulation the NHP were bled at 8, 24, 48 and 72 hours to determined protein expression. After administration with the EPO modified mRNA formulation the NHP were bled at 8, 24, 48, 72 hours and 7 days to determined protein expression.
Samples collected from the NHPs after they were administered with G-CSF or EPO modified mRNA formulations were analyzed by ELISA to determine protein expression. Neutrophil and reticulocyte count was also determined pre-dose, 24 hours, 3 days, 7 days, 14 days and 18 days after administration of the modified G-CSF or EPO formulation.

hemoglobin (HGB) = assay: Example 22 non-human primate study, hemoglobin (HGB); assay type: in vivo, cynomolgus monkey
Protocol: as §1

red blood cell (RBC) = assay: Example 22 non-human primate study, red blood cell (RBC) count; assay type: in vivo, cynomolgus monkey
Protocol: as §1

[1] = Female NHP, 0.005 mg/kg, 14/18 days
[2] = Female NHP, 0.005 mg/kg, 24 hours
[3] = Female NHP, 0.005 mg/kg, 3 days
[4] = Female NHP, 0.005 mg/kg, 7 days
[5] = Female NHP, 0.005 mg/kg, Pre-dose
[6] = Female NHP, 0.05 mg/kg, 14/18 days
[7] = Female NHP, 0.05 mg/kg, 24 hours
[8] = Female NHP, 0.05 mg/kg, Pre-dose
[9] = Female NHP, 0.5 mg/kg, 14/18 days
[10] = Female NHP, 0.5 mg/kg, 24 hours
[11] = Female NHP, 0.5 mg/kg, Pre-dose
[12] = Male NHP, 0.005 mg/kg, 14/18 days
[13] = Male NHP, 0.005 mg/kg, 24 hours
[14] = Male NHP, 0.005 mg/kg, Pre-dose
[15] = Male NHP, 0.05 mg/kg, 14/18 days
[16] = Male NHP, 0.5 mg/kg, 14/18 days

B1: G-CSF: human G-CSF mRNA SEQ ID NO: 6, polyA ~160 nt, Cap1, fully modified with 5-methylcytosine and pseudouridine (nucleic acid, listed as Homo sapiens)
chain: GGGAAAUAAGAGAGAAAAGAAGAGUAAGAAGAAAUAUAAGAGCCACCAUGGCCGGUCCCGCGACCCAAAGCCCCAUGAAACUUAUGGCCCUGCAGUUGCUGCUUUGGCACUCGGCCCUCUGGACAGUCCAAGAAGCGACUCCUCUCGGACCUGCCUCAUCGUUGCCGCAGUCAUUCCUUUUGAAGUGUCUGGAGCAGGUGCGAAAGAUUCAGGGCGAUGGAGCCGCACUCCAAGAGAAGCUCUGCGCGACAUACAAACUUUGCCAUCCCGAGGAGCUCGUACUGCUCGGGCACAGCUUGGGGAUUCCCUGGGCUCCUCUCUCGUCCUGUCCGUCGCAGGCUUUGCAGUUGGCAGGGUGCCUUUCCCAGCUCCACUCCGGUUUGUUCUUGUAUCAGGGACUGCUGCAAGCCCUUGAGGGAAUCUCGCCAGAAUUGGGCCCGACGCUGGACACGUUGCAGCUCGACGUGGCGGAUUUCGCAACAACCAUCUGGCAGCAGAUGGAGGAACUGGGGAUGGCACCCGCGCUGCAGCCCACGCAGGGGGCAAUGCCGGCCUUUGCGUCCGCGUUUCAGCGCAGGGCGGGUGGAGUCCUCGUAGCGAGCCACCUUCAAUCAUUUUUGGAAGUCUCGUACCGGGUGCUGAGACAUCUUGCGCAGCCGUGAAGCGCUGCCUUCUGCGGGGCUUGCCUUCUGGCCAUGCCCUUCUUCUCUCCCUUGCACCUGUACCUCUUGGUCUUUGAAUAAAGCCUGAGUAGGAAG
modifications: polyA ~160, Cap1, 5mC/pseudouridine modified
Female NHP Serum G-CSF Concentration (G-CSF; IV 0.005 mg/kg, 8 hours): 559 pg/mL | Male NHP Serum G-CSF Concentration (G-CSF; IV 0.005 mg/kg, 8 hours): 700 pg/mL | Female NHP Serum G-CSF Concentration (G-CSF; IV 0.005 mg/kg, 24 hours): 155 pg/mL | Male NHP Serum G-CSF Concentration (G-CSF; IV 0.005 mg/kg, 24 hours): <39 pg/mL | Female NHP Serum G-CSF Concentration (G-CSF; IV 0.005 mg/kg, 48 hours): <39 pg/mL | Male NHP Serum G-CSF Concentration (G-CSF; IV 0.005 mg/kg, 48 hours): <39 pg/mL | Female NHP Serum G-CSF Concentration (G-CSF; IV 0.005 mg/kg, 72 hours): <39 pg/mL | Male NHP Serum G-CSF Concentration (G-CSF; IV 0.005 mg/kg, 72 hours): <39 pg/mL | Female NHP Serum G-CSF Concentration (G-CSF; IV 0.005 mg/kg, Pre-bleed): <39 pg/mL | Male NHP Serum G-CSF Concentration (G-CSF; IV 0.005 mg/kg, Pre-bleed): <39 pg/mL | Female NHP Serum G-CSF Concentration (G-CSF; IV 0.05 mg/kg, 24 hours): 722 pg/mL | Male NHP Serum G-CSF Concentration (G-CSF; IV 0.05 mg/kg, 24 hours): 307 pg/mL | Female NHP Serum G-CSF Concentration (G-CSF; IV 0.5 mg/kg, 8 hours): 43,525 pg/ml | Male NHP Serum G-CSF Concentration (G-CSF; IV 0.5 mg/kg, 8 hours): 43,594 pg/ml | Female NHP Serum G-CSF Concentration (G-CSF; IV 0.5 mg/kg, 24 hours): 11,374 pg/ml | Male NHP Serum G-CSF Concentration (G-CSF; IV 0.5 mg/kg, 24 hours): 3,628 pg/ml | Female NHP Serum G-CSF Concentration (G-CSF; IV 0.5 mg/kg, 48 hours): 1,100 pg/ml | Male NHP Serum G-CSF Concentration (G-CSF; IV 0.5 mg/kg, 48 hours): 833 pg/mL | Female NHP Serum G-CSF Concentration (G-CSF; IV 0.5 mg/kg, 72 hours): <39 pg/mL | Male NHP Serum G-CSF Concentration (G-CSF; IV 0.5 mg/kg, 72 hours): 306 pg/mL | Female NHP Serum G-CSF Concentration (G-CSF; IV 0.5 mg/kg, Pre-bleed): <39 pg/mL | Male NHP Serum G-CSF Concentration (G-CSF; IV 0.5 mg/kg, Pre-bleed): <39 pg/mL | Average Serum Conentration (G-CSF; NHP, IV 0.05 mg/kg, 8 hours): 2,506 pg/ml | Average Serum Conentration (G-CSF; NHP, IV 0.05 mg/kg, 24 hours): 515 pg/mL | Average Serum Conentration (G-CSF; NHP, IV 0.05 mg/kg, 48 hours): 0 pg/mL | Average Serum Conentration (G-CSF; NHP, IV 0.05 mg/kg, 72 hours): 0 pg/mL | Average Serum Conentration (G-CSF; NHP, IV 0.05 mg/kg, Pre-bleed): 0 pg/mL | G-CSF protein expression seen out to (G-CSF; NHP, IV 0.05 mg/kg): 24 h | G-CSF protein expression not detected beyond (G-CSF; NHP, IV 0.5, 0.05, 0.005 mg/kg (Table 36)): ≤ 72 h | HGB (hemoglobin (HGB); [1]): 129 g/L | HGB (hemoglobin (HGB); [2]): 127 g/L | HGB (hemoglobin (HGB); [3]): 127 g/L | HGB (hemoglobin (HGB); [4]): 129 g/L | HGB (hemoglobin (HGB); [5]): 129 g/L | HGB (hemoglobin (HGB); [6]): 123 g/L | HGB (hemoglobin (HGB); [7]): 117 g/L | HGB (hemoglobin (HGB); Female NHP, 0.05 mg/kg, 3 days): 115 g/L | HGB (hemoglobin (HGB); Female NHP, 0.05 mg/kg, 7 days): 116 g/L | HGB (hemoglobin (HGB); [8]): 129 g/L | HGB (hemoglobin (HGB); [9]): 113 g/L | HGB (hemoglobin (HGB); [10]): 112 g/L | HGB (hemoglobin (HGB); Female NHP, 0.5 mg/kg, 3 days): 114 g/L | HGB (hemoglobin (HGB); Female NHP, 0.5 mg/kg, 7 days): 116 g/L | HGB (hemoglobin (HGB); [11]): 129 g/L | HGB (hemoglobin (HGB); [12]): 118 g/L | HGB (hemoglobin (HGB); [13]): 117 g/L | HGB (hemoglobin (HGB); Male NHP, 0.005 mg/kg, 3 days): 116 g/L | HGB (hemoglobin (HGB); Male NHP, 0.005 mg/kg, 7 days): 116 g/L | HGB (hemoglobin (HGB); [14]): 128 g/L | HGB (hemoglobin (HGB); [15]): 134 g/L | HGB (hemoglobin (HGB); Male NHP, 0.05 mg/kg, 24 hours): 122 g/L | HGB (hemoglobin (HGB); Male NHP, 0.05 mg/kg, 3 days): 126 g/L | HGB (hemoglobin (HGB); Male NHP, 0.05 mg/kg, 7 days): 126 g/L | HGB (hemoglobin (HGB); Male NHP, 0.05 mg/kg, Pre-dose): 137 g/L | HGB (hemoglobin (HGB); [16]): 98 g/L | HGB (hemoglobin (HGB); Male NHP, 0.5 mg/kg, 24 hours): 113 g/L | HGB (hemoglobin (HGB); Male NHP, 0.5 mg/kg, 3 days): 118 g/L | HGB (hemoglobin (HGB); Male NHP, 0.5 mg/kg, 7 days): 115 g/L | HGB (hemoglobin (HGB); Male NHP, 0.5 mg/kg, Pre-dose): 133 g/L | RBC (red blood cell (RBC); [1]): 5.34 10^12/L | RBC (red blood cell (RBC); [2]): 5.35 10^12/L | RBC (red blood cell (RBC); [3]): 5.24 10^12/L | RBC (red blood cell (RBC); [4]): 5.34 10^12/L | RBC (red blood cell (RBC); [5]): 5.36 10^12/L | RBC (red blood cell (RBC); [6]): 5.26 10^12/L | RBC (red blood cell (RBC); [7]): 5.08 10^12/L | RBC (red blood cell (RBC); Female NHP, 0.05 mg/kg, 3 days): 5.04 10^12/L | RBC (red blood cell (RBC); Female NHP, 0.05 mg/kg, 7 days): 5.05 10^12/L | RBC (red blood cell (RBC); [8]): 5.64 10^12/L | RBC (red blood cell (RBC); [9]): 4.92 10^12/L | RBC (red blood cell (RBC); [10]): 4.96 10^12/L | RBC (red blood cell (RBC); Female NHP, 0.5 mg/kg, 3 days): 4.97 10^12/L | RBC (red blood cell (RBC); Female NHP, 0.5 mg/kg, 7 days): 5.04 10^12/L | RBC (red blood cell (RBC); [11]): 5.57 10^12/L | RBC (red blood cell (RBC); [12]): 5.37 10^12/L | RBC (red blood cell (RBC); [13]): 5.34 10^12/L | RBC (red blood cell (RBC); Male NHP, 0.005 mg/kg, 3 days): 5.32 10^12/L | RBC (red blood cell (RBC); Male NHP, 0.005 mg/kg, 7 days): 5.25 10^12/L | RBC (red blood cell (RBC); [14]): 5.67 10^12/L | RBC (red blood cell (RBC); [15]): 5.43 10^12/L | RBC (red blood cell (RBC); Male NHP, 0.05 mg/kg, 24 hours): 4.96 10^12/L | RBC (red blood cell (RBC); Male NHP, 0.05 mg/kg, 3 days): 5.13 10^12/L | RBC (red blood cell (RBC); Male NHP, 0.05 mg/kg, 7 days): 5.17 10^12/L | RBC (red blood cell (RBC); Male NHP, 0.05 mg/kg, Pre-dose): 5.68 10^12/L | RBC (red blood cell (RBC); [16]): 4.21 10^12/L | RBC (red blood cell (RBC); Male NHP, 0.5 mg/kg, 24 hours): 4.66 10^12/L | RBC (red blood cell (RBC); Male NHP, 0.5 mg/kg, 3 days): 4.91 10^12/L | RBC (red blood cell (RBC); Male NHP, 0.5 mg/kg, 7 days): 4.8 10^12/L | RBC (red blood cell (RBC); Male NHP, 0.5 mg/kg, Pre-dose): 5.57 10^12/L

Reference: patent publication US20160193299A1, “MODIFIED NUCLEOSIDE, NUCLEOTIDE, AND NUCLEIC ACID COMPOSITIONS” (Moderna Therapeutics, Inc., priority 2011, published 2016)
